assay: soluble on expression in E. coli; label from the status in PepcDB or PDB records

Soluble on expression in E. coli, not soluble:
MSWITNYDAAQRELLMQKVQMQMSERRFRHVLGVEETAVALAAKYGADEAKASIAALTHDYAKERPNDEFELIIRRDGFDLALLNYGNEIWHGLVGADIVQRELAIDDEEILQAIRVHTTGAAKMSLLDKIIYVADYIEPGRDFPGVKEAREIALVDLDAAVAYETKHTLLHLIEQEHKIYPKTLETYNQWVVNQK, YCEFLNNELRAHASDLLPTAPVPTMMLDRAWDEATLHNITQLIYDVRKDDALFRREISKPGAFDLMRKNYWDRREYSAVTLVGNETCNLAPLAELGFQIEVSQ, MAHHHHHHMGKLSKDRRDIYYRKAKESGYRARSSFKLIQINEKFGILKLFKPDIYNCNNEKDLINIYNEHYCYNIVDLCAAPGSWSQVLKNICLYNYYQILYMINKYNNNENIKNIQHEEFLNKFSLYINYNEELENKIKNLKIKCSNIKEPNIVAVDLQEIGNMNYVKIIQGDITKMSTIDKILKCMNNKINSDEENVNVFYNMEQQKKENNFSYAHTVVSDGAPDITGMNDIDEFIQSQLILSSLKVCCSVLKVGGNFISKIFRGEHTGLLILHLNKFFQRVYICKPQSSRNKSLESFLVCLNFSLPRSNIISMNNHNAENKINDKYLSEEQMRKFHAQLITYKDKDDQESEEKKENYNSHDNIDYNLCHTTKHNKNISDEIETKEVSSPYEHNNIVENNVTPNSDMLKNINKIINEYDNDKNNLDIFNFYCSDSDEEIKYFNSEDEEVVNNYISSESFMSNKLFSFIATDNYYDSDKSYLLPENYVRHEPQLMPLKPPYMLSLQKKRQEVKK, MYTITDIAPTDAEFIALIAALDAWQETLYPAESNHLLDLSQLPPQTVIALAIRSPQGEAVGCGAIVLSEEGFGEMKRVYIDPQHRGQQLGEKLLAALEAKARQRDCHTLRLETGIHQHAAIALYTRNGYQTRCAFAPYQPDPLSVFMEKP, MLDANKLQQAVDQAYTQFHSLNGGQNADYIPFLANVPGQLAAVAIVTCDGNVYSAGDSDYRFALESISKVCTLALALEDVGPQAVQDKIGADPTGLPFNSVIALELHGGKPLSPLVNAGAIATTSLINAENVEQRWQRILHIQQQLAGEQVALSDEVNQSEQTTNFHNRAIAWLLYSAGYLYCDAMEACDVYTRQCSTLLNTIELATLGATLAAGGVNPLTHKRVLQADNVPYILAEMMMEGLYGRSGDWAYRVGLPGKSGVGGGILAVVPGVMGIAAFSPPLDEDGNSVRGQKMVASVAKQLGYNVFKGLEHHHHHH, MRDATPFYEATGHEIEVFERAWRHGLPVLLKGPTGCGKTRFVQYMARRLELPLYSVACHDDLGAADLLGRHLIGADGTWWQDGPLTRAVREGGICYLDEVVEARQDTTVAIHPLADDRRELYLERTGETLQAPPSFMLVVSYNPGYQNLLKGLKPSTRQRFVALRFDYPAAQQEARILVGESGCAETLAQRLVQLGQALRRLEQHDLEEVASTRLLIFAARLIGDGMDPREACRVALAEPLSDDPATVAALMDIVDLHVALEHHHHHH, MAGAGMYGDCSLAATLSYGAVLEPYLHPKPGGVTPYASEGGKSFGDFVLHATLSSRLLAWACLKAWKNGPIGVIASVKERYLREVVPRFKGNIAYGTFMLMAPLAVAIALSKSSEPEELVTTARDTIYCCTGRRESLLHYKILRRLSPSHLGRYRGELPDVASGGERDIPPYPLLLKLNSWDMVHRELAKGYPITLEAYRHSLNRVKEGRSVEEALLEALLKVLAEHGDTLIFQKYGGRAFKMAREEARVAFHVSERWGVRHAITWLERLWRGREWNPGAALDIVAVASGLLLITISRDASS, MGSDKIHHHHHHMNFDEKPYLRSIALKHQGLAEAKVTLIDGEFHDESAVRVQDCYPFTIPALAGFDSLDFDADVTFFVGENGSGKSTLLEAIAVAMGLNAEGGNKNTHFATKVSHSNLGYYLKTIKSFKKPKDSYFLRAESFYNLASYMEEDGREAYLGSYGGTSLHQQSHGESFMATLLHKFRGQGLYLMDEPEAALSPSRQLAALSAIHQLVENKSQFIIATHSPILLAYPRAKIYQFSNQGIVQITYQETEHYQITKAFLNQPEKLLASLGVG, MAHHHHHHMSVKNTFGTQAAKALCANLYTNWLSEDENVERIRDLLNRVLTLSATDQHSEMGAKNAASMTTAAAAAAGDKKGKAAGADALGNGARHSDPAVGLSTSSAAIHGNADRAQSPQPSPPQKSDKSAAALAADDRTPSPIQPSTSPTLIARFPGGVDELDYPHRAGSPVVTPVSPQPKPIVDPSAPLPHVGTGSLSPHGVHSLGSPRLDTTLNAAMVSGDLTIPLDASSTLSTTARESTTRFLHTSGSFAVTPPANLKQATLDEIPCFYSKRESRGLQIEVDVEEAQELSRLLEKNDPVKKTVWVFGDISSKVFKVPIWYKEALFKDIATRSGLDAATADTLTAAQIRTVYNDVYAPLSVSRRLYELICTHPKKEFITLSDLEGMGKYLVAAHPGLQFLQQPEFQEYYWHTVAVRIMYMLERQQCGRIYWRDFDRSDLPERMMELDAKDVNLVLDYFSYEHFYVLYCKFWELDTDRDLLVGFEDLCNYGQGSVVTGVIKRVVEGYGRPLSSGVPGKMDFEDFVYFCLSEEDKNSEPAVLYWFKVLDTDEDGVLSGYEMMQFFEENQQRFLEFSDSPEGDIAYEDTVCQMLDMVGFDRVKVRKYGVTLGDLRSCPTPANFFNMIFNASKFLLFEHRDPFGEHQMRLRVEKTEWDRFARAEYDRMAAEAQ, MGSDKIHHHHHHMFTPRGFKFAGVHCKIKRKRKDLGIIFSEVPCVAAGVFTTNVVKAAPVIYDMEILKKNPNGIKAVVVNSGVANACTGEQGMINARRMAEKTAEELGVPVESVLVSSTGVIGVQLPMDKVENGIEEAARVLSNDPLPFAEAIMTTDTKVKMHSTKVMIDGKEITVLGIAKGSGMIHPNMATMLSFITTDAKISEEALKKLLKLSVDDSYNMIDVDGDTSTNDMVIVLANGLAGNTTIQPETDGFWKLYEAVHEVNQVLAEKIVEDGEGATKVMEVHVINAPDIKSARLIARSIVSSNLVKTAIYGEDANWGRVIAAAGYSGATFDPEKLDLFFESEAGRIKVAENGQGVSFDEEEAKKILSEKKIRIILDMKQGKETAKAWGCDLTEKYVEINGRYRT, MRWFLLIVVSALFLSGCMPEIYTHASTPSTIIADNETHIAGRYAFVDVQVLDEYGLPVSGEDVSFYVDGAFLGEATTDTSGVARIGFFSPSEKTYTFTAVAGGVSRSFDVSFTKPKWLFIVWMAADNNLYYYSEDDLSEMRNASGSVSVVVVYDGIGIGDGMLVLDESGNFQAVVGTMGIDFNSGSYTNLEAWLEMILNQFDADHYALVIWDHGSAWIGDSYYISTKVIGYDDFQGTAIAVSNLRKALENALSGDKLDILGFDACLMGSLEVIYELRNTADYIVASSFNEPAEGWDYSFLGEIAPDSTPLDVARMIVDSYREYYSSDTYQNELSLAVYDTSQVEVFVSDLNLFISDLKADLSKVDAVYSDVVKSYIDDYNQTVLVDLGDFIDRWVSSSRITTAPDLSSVVVYSYGEIAGKTLSFPISIFMPESMSCYQDYQTDYQTLSFPYDTQWDEFLEYWLNQKGGLEHHHHHH, MGSDKIHHHHHHMIHLSNITKQHGAQVLFRDASFQILPGTRTGLVGPNGAGKTTIFRIITGEEEVDAGEMTCAKKTTVGYFSQDVGEMAGRSALEEVMAGSAETVRLAAELKEMEAAMCEPQSDDEMAALLERYGAAQEEFEHRGGYDLDTRAQTVLTGLGIGPDRFHHPVESFSGGWKMRIALAKILTLKPDVLLLDEPTNHLDVESIIWLEEWLANDFDGALLMTSHDRDFMNRIVTRIIEVANRTVTTYGGNYDFYERERDIRREQLLASHKRQQEMLAKEEEFIARFAARASHAAQVQSRVKKLEKIERIEIPAEERMVRFEFSEPPRSGEDVVVMENLGKVWQTPDGGEKPVFGGVSGIIRRLNKIAVVGVNGAGKSTFLKVLAGQTEPTTGTVTIGANVELGYFSQHAMEVLDPKKTVFETVQEAMPLANIGVIRNLLAAFLFQGDTVDKRVENLSGGEKSRVVLATLLARPVNFLVLDEPTNHLDIRSREILLDALRNFAGTVVIVSHDRHFLRSLVDRVFEVDHGEMRVYEGDYSYYLRKSHELHGLP

Soluble on expression in E. coli, soluble:
RRHKNKNPFHFNSKRFQTLFKNQYGHVRVLQRFNKRSQQLQNLRDYRILEFNSKPNTLLLPHHADADYLIVILNGTAILTLVNNDDRDSYNLQSGDALRVPAGTTYYVVNPDNDENLRMITLAIPVNKPGRFESFFLSSTQAQQSYLQGFSKNILEASYDTKFEEINKVLFGREEGQQQGEERLQESVIVEISKKQIRELSKHAKSSSRKTISSEDKPFNLRSRDPIYSNKLGKLFEITPEKNPQLRDLDVFLSVVDMNEGALFLPHFNSKAIVVLVINEGEANIELVGIKEQQQRQQQEEQPLEVRKYRAELSEQDIFVIPAGYPVVVNATSDLNFFAFGINAENNQRNFLAGSKDNVISQIPSQVQELAFPGSAKDIENLIKSQSESYFVDAQPQQKEEGNKGRKGPLSSILRAFY, MATDHIRYDVLARDALRGVLRHVLTDVAQHGLPGEHHFFITFQSKGDGVKLSPRLLAQYPEEMTVVLQHQFWDLVVTEDRFEVGLSFGGIPERLVVPFASIKSFFDPSVKFGLQFEAADEVDETGEADDGTELVTAAPAPVALPTSSATTDSSAPSDDEPPRSGEGAEVVRLDRFRKKLEHHHHHH, SHMLEDPCTSKKVRAARTLLAKNLSFNITEDELKEVFEDALEIRLVSQDGKSKGIAYIEFKSEADAEKNLEEKQGAEIDGRSVSLYYTGEKGGTRG, MHGLQDDPDLQALLKGSQLLKVKSSSWRRERFYKLQEDCKTIWQESRKVMRSPESQLFSIEDIQEVRMGHRTEGLEKFARDIPEDRCFSIVFKDQRNTLDLIAPSPADAQHWVQGLRKIIHHSGSMDQRQK, MSKNKNDYEHMLFYFAYKTFITTADEIIEQYGMSRQHHRFLFFINKLPGITIKELLITLEISKQGSHATLRKLKEEGLIVEQTSKQDRRVKKLFTTEAGDDLIGKLNQAQDELIQQTLQKVGHDWYAMMEELANYREGFKTIEHLKED, MIPDTEQELINQYLKKISKIPLLTPEEEKELARRAKQGDKEALKKLVESNLRFVVSVAKQYIGYGLPFSELIAAGNLGLLEAAKRFDPDRGVKFISYAVWWIRQAIMQALSQQTGAVRIPLKQSHIINKISHIYGELSKKLEREPSPEEIAEELSKQMIAKELEKELGREPTEEEIEERFKKEGYKITPEEVEKYLQVCRVPLSLDAPVGENEDTFFIDFLSKHGTAEVEEKVIQEVIQKEIDDLLSKLTDKERKVIELRFGLKGNEPKTLREIGEILGLSRERVRQLETRALRKLRSLAMKRHLKDFLS, VTSDPGTAAPVKRTAEQSRSLIVDAAGRAFATRPYREITLKDIAEDAGVSAPLIIKYFGSKEQLFDALVDFRAAAEIVFSGPLDGLGERMVSMFARPLEPYKPLSLNILFMSGPSEESSRKLRANYSAQMIDALAERLPGRDARLRAELVMSMLTGLAVMRRKMMQEHATGTPEEVVAHYAPLVQELLDG, MSLNELPRPDMMFGLKVVLAATDFSARSDRAVRRAAALARQSGARLVIAHVVDDDQPEHIVAVEVELAESALADAIREHTYLAGLQCTPLVLLGTPFDAIVRAAHQQGADLCVVGSHRRAFLRDIFAGTTAERVIRNSTVPVLMANLDPALPYAKSLAPVDLTDCSAQALETARQLGLLQRTKLIVMHVYDAAAAGMLNYAGVDKTSLDDYLVDTRTDAVRDLVRFLEPLRLDDVDYSTVVKEGAGPATDIIEAATELRPDLVVIGTHARRGAVRLLLSSVTEEVLRRLQRDILVVPVRDAGSEGHHHHHH
